The record followed here is patent US20120135923A1, “Use of Melanocortins to Treat Dyslipidemia” (IPSEN PHARMA, S.A.S., priority 2009, published 2012).

What all share (experiment): cell-based or functional assay
Experiment [1] has as its target hMC1-R (human) (UniProt Q01726).
Experiment [2] has as its target hMC3-R (human) (UniProt P41968).
The target in experiment [3] is hMC4-R (human) (UniProt P32245).
Experiment [4] has as its target hMC5-R (human) (UniProt P33032).

Bridge positions count the residues as written; N and C are the ends. Square brackets hold non-standard residues; d marks the D form. 1Nal = N[C@@H](Cc1cccc2ccccc12)C(=O)O; 2Nal = N[C@@H](Cc1ccc2ccccc2c1)C(=O)O; d2Nal = N[C@H](Cc1ccc2ccccc2c1)C(=O)O Bounds are passed on as bounds.

Chain of hMC4-R (human) (P32245 whole entry): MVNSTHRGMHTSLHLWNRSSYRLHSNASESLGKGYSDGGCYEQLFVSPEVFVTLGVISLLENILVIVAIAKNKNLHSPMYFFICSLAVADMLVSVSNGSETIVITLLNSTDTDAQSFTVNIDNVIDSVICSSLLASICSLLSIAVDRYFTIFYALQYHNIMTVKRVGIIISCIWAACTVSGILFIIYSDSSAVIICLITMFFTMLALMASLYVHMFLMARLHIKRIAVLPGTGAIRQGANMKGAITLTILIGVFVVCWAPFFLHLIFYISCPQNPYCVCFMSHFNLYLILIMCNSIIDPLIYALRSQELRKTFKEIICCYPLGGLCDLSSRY
Chain of hMC1-R (human) (Q01726 whole entry): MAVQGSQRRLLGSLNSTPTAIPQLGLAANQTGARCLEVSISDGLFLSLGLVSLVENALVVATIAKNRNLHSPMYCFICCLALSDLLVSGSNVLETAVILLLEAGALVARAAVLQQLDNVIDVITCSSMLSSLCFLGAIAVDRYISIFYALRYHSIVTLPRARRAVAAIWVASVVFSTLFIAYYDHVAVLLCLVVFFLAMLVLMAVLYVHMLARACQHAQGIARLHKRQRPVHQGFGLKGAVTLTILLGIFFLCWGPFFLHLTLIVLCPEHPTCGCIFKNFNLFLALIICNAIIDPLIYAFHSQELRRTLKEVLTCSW
Chain of hMC3-R (human) (P41968 whole entry): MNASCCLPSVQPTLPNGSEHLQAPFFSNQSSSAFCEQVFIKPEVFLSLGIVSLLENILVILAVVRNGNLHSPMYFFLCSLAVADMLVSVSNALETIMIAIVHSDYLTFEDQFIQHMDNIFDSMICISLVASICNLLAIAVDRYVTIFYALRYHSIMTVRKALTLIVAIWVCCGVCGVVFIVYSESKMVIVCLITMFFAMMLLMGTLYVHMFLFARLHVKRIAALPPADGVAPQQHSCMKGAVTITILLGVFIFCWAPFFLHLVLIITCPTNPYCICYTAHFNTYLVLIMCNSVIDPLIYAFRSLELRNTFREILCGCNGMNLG
Chain of hMC5-R (human) (P33032 whole entry): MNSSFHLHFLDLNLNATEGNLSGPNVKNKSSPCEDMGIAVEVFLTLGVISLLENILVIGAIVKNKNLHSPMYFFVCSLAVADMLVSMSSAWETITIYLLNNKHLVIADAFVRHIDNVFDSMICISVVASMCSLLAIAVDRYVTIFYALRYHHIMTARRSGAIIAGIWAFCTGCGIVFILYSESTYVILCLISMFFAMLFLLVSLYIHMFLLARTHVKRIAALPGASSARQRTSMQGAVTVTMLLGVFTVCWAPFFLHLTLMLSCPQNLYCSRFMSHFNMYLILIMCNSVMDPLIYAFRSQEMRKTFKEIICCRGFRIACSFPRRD

In experiment [1], “Ac-c(Cys-Glu-His-D-2-Nal-Arg-Bal-Ala-Cys)-Pro-Pro-Lys-Asp-NH2 (peptide; in nM (unit assumed))” registered a cAMP EC50 of 690. Further, the figures for the cAMP Kb in experiment [2] and in experiment [3] were 70.7 and 4.56, respectively.

On to “Hydantoin(C(O)-(Gly-Gly))-c(Cys-D-Ala-His-D-Phe-Arg-Trp-Cys)-NH2 (peptide)”, for which the cAMP EC50 in experiment [4] was determined as 201 nM.

Take “Hydantoin(C(O)-(Gly-D-Arg))-c(Cys-Glu-His-D-Phe-Arg-Trp-Cys)-NH2 (peptide; unit assumed)”: the cAMP EC50 was found to be 12.9 nM in experiment [1], 10.3 nM in experiment [2] and 0.125 nM in experiment [3].

On to “Hydantoin(C(O)-(Arg-Gly))-c(Cys-D-Ala-His-D-Phe-Arg-Trp-Cys)-NH2 (peptide; unit assumed)”, for which the cAMP EC50 in experiment [1] came to 8.81 nM; in experiment [2], 18.2 nM; in experiment [3], 0.503 nM.

Regarding “Ac-Nle-c(Pen-D-Ala-His-D-Phe-Arg-Trp-Cys)-NH2 (peptide; unit assumed)”, the cAMP EC50 is 1.89 nM in experiment [2] and 0.531 nM in experiment [3].

Consider “Hydantoin(C(O)-(Gly-D-Arg))-c(Cys-D-Ala-His-D-Phe-Arg-Trp-Cys)-NH2 (peptide)”, for which the cAMP EC50 in experiment [4] is 9840 nM.

Turning to “Hydantoin(C(O)-(Nle-Gly))-c(Cys-Glu-His-D-Phe-Arg-Trp-Cys)-NH2 (peptide)”, in experiment [4], the cAMP EC50 was greater than 10000 nM.

As to “Hydantoin(C(O)-(Gly-Arg))-c(Cys-Glu-His-D-Phe-Arg-Trp-Cys)-NH2 (peptide)”, in experiment [4], the cAMP EC50 stood at 335 nM.

“Ac-c(Cys-Glu-His-D-2-Nal-Arg-Bal-Ala-Cys)-Pro-Pro-Lys-Asp-NH2 (peptide; unit assumed)” gave a cAMP EC50 in experiment [4] of 177 nM.

On to “Ac-Arg-c(Cys-D-Ala-His-D-Phe-Arg-Trp-Cys)-NH2 (peptide; unit assumed)”, for which the cAMP EC50 in experiment [4] was found to be 1630 nM.

For the substance “Hydantoin(C(O)-(Gly-Gly))-c(Cys-Glu-His-D-Phe-Arg-Trp-Cys)-NH2 (peptide; unit assumed)”, the cAMP EC50 in experiment [1] is 124 nM; in experiment [2], 8.05 nM; in experiment [3], 0.214 nM.

Turning to “Ac-c(Cys-Glu-His-D-2-Nal-Arg-Trp-Ala-Cys)-Pro-Pro-Lys-Asp-β-Ala-Tyr-Gly-Arg-Lys-Lys-Arg-Arg-Gln-Arg-Arg-Arg-NH2 (peptide; in nM (unit assumed))”, the cAMP EC50 in experiment [1] is 6.3. Besides, the figures for the cAMP Kb in experiment [2] and in experiment [3] were 70 and 1.66, respectively.

For “Hydantoin(C(O)-(D-Ala-Nle))-c(Cys-D-Ala-His-D-Phe-Arg-Trp-Cys)-NH2 (peptide; unit assumed)”, the values for the cAMP EC50 in experiment [2] and in experiment [3] were 2.56 nM and 1.47 nM, respectively.

As for “Hydantoin(C(O)-(D-Ala-Gly))-c(Cys-D-Ala-His-D-Phe-Arg-Trp-Cys)-NH2 (peptide; unit assumed)”, the cAMP EC50 is 4.7 nM in experiment [1], 2.22 nM in experiment [2] and 0.309 nM in experiment [3].

For the substance “c[Hydantoin(C(O)-(Ile-Cys))-D-Ala-His-D-Phe-Arg-Trp-Cys]-NH2 (peptide; unit assumed)”, the cAMP EC50 in experiment [2] turned out to be 8.51 nM; in experiment [3], 1.85 nM.

The substance “Ac-c(Cys-Glu-His-D-2-Nal-Arg-Trp-Ala-Cys)-Pro-Pro-Lys-Asp-β-Ala-Tyr-Gly-Arg-Lys-Lys-Arg-Arg-Gln-Arg-Arg-Arg-NH2 (peptide; unit assumed)” had a cAMP EC50 in experiment [4] of 38.2 nM.

For “Hydantoin(C(O)-(Leu-Nle))-c(Cys-D-Ala-His-D-Phe-Arg-Trp-Cys)-NH2 (peptide; unit assumed)”, the cAMP EC50 in experiment [2] amounted to 9.68 nM; in experiment [3] it was 1.83 nM.

Consider “Ac-Tyr-Arg-c(Cys-D-Ala-His-D-Phe-Arg-Trp-Cys)-NH2 (peptide; unit assumed)”, for which the results for the cAMP EC50 in experiment [2] and in experiment [4] were 2.39 nM and 1540 nM, respectively.

In experiment [4], “Hydantoin(C(O)-(Nle-Gly))-c(Cys-D-Ala-His-D-Phe-Arg-Trp-Pen)-NH2 (peptide)” came in with a cAMP EC50 of 352 nM.

Regarding “Hydantoin(C(O)-(Gly-Gly))-c(Cys-D-Ala-His-D-Phe-Arg-Trp-Cys)-NH2 (peptide; unit assumed)”, the results for the cAMP EC50 in experiment [1], in experiment [2] and in experiment [3] were 14.2 nM, 2.46 nM and 0.336 nM, respectively.

Regarding “Hydantoin(C(O)-(Gly-Arg))-c(Cys-D-Ala-His-D-Phe-Arg-Trp-Cys)-NH2 (peptide)”, the cAMP EC50 in experiment [4] was found to be 3610 nM.

In the case of “Hydantoin(C(O)-(Val-Nle))-c(Cys-D-Ala-His-D-Phe-Arg-Trp-Cys)-NH2 (peptide; unit assumed)”, the results for the cAMP EC50 in experiment [2] and in experiment [3] were 4.61 nM and 0.977 nM, respectively.

With “Ac-CEH[d2Nal]R[1Nal]ACPPKD-NH2 (disulfide 1-8)”, the cAMP EC50 in experiment [4] turned out to be 104 nM.

As to “Hydantoin(C(O)-(Gly-Gly))-c(Cys-Glu-His-D-Phe-Arg-Trp-Cys)-NH2 (peptide)”, the cAMP EC50 in experiment [4] was greater than 10000 nM.

As for “Hydantoin(C(O)-(Gly-D-Arg))-c(Cys-D-Ala-His-D-Phe-Arg-Trp-Cys)-NH2 (peptide; unit assumed)”, the figures for the cAMP EC50 in experiment [1], in experiment [2] and in experiment [3] were 7.53 nM, 11.6 nM and 0.435 nM, respectively.

In turn, “Ac-D-Arg-c(Cys-D-Ala-His-D-Phe-Arg-Trp-Cys)-NH2 (peptide; unit assumed)” gave a cAMP EC50 in experiment [4] of 1020 nM.

In turn, “Hydantoin(C(O)-(Arg-Gly))-c(Cys-Glu-His-D-Phe-Arg-Trp-Cys)-NH2 (peptide)” registered a cAMP EC50 in experiment [4] of 4010 nM.

With “Hydantoin(C(O)-(Arg-Gly))-c(Cys-D-Ala-His-D-Phe-Arg-Trp-Cys)-NH2 (peptide)”, the cAMP EC50 in experiment [4] worked out at 3560 nM.

As to “Nle-c(Asp-His-D-2-Nal-Arg-Trp-Lys)-β-Ala-Tyr-Gly-Arg-Lys-Lys-Arg-Arg-Gln-Arg-Arg-Arg-NH2 (peptide; in nM (unit assumed))”, the cAMP Kb is 207 in experiment [2] and 18.5 in experiment [3].

As to “Ac-Nle-c(Asp-His-D-2-Nal-Arg-Trp-β-Ala-Lys)-NH2 (peptide; unit assumed)”, in experiment [1], the cAMP EC50 was 0.913 nM.

With “c[Hydantoin(C(O)-(Glu-D-Ala))-His-D-Phe-Arg-Trp-Lys]-NH2 (peptide; unit assumed)”, the cAMP EC50 in experiment [2] was 22.3 nM; in experiment [3], 3.62 nM.

“Ac-Nle-c(Asp-His-D-2-Nal-Arg-Trp-Ala-Lys)-NH2 (peptide; unit assumed)” registered a cAMP EC50 in experiment [1] of 0.619 nM.

For the substance “Ac-Nle-c(Asp-His-D-2-Nal-Arg-Trp-Lys)-β-Ala-Tyr-Gly-Arg-Lys-Lys-Arg-Arg-Gln-Arg-Arg-Arg-NH2 (peptide; in nM (unit assumed))”, the figures for the cAMP Kb in experiment [2] and in experiment [3] were 220 and 4.07, respectively.

Take “Ac-CEH[d2Nal]R[2Nal]ACPPKD-NH2 (disulfide 1-8)”: the cAMP EC50 in experiment [4] was found to be 66.9 nM.

Substance “Hydantoin(C(O)-(A6c-Nle))-c(Cys-D-Ala-His-D-Phe-Arg-Trp-Cys)-NH2 (peptide; unit assumed)” displayed a cAMP EC50 in experiment [3] of 1.8 nM.

As to “Ac-Nle-c(Asp-His-D-2-Nal-Arg-Trp-Lys)-β-Ala-β-Ala-Tyr-Gly-Arg-Lys-Lys-Arg-Arg-Gln-Arg-Arg-Arg-NH2 (peptide; unit assumed)”, the cAMP EC50 in experiment [4] came to 0.839 nM.

In the case of “Hydantoin(C(O)-(Ala-Gly))-c(Cys-D-Ala-His-D-Phe-Arg-Trp-Cys)-NH2 (peptide)”, the cAMP EC50 in experiment [4] was determined as 516 nM.
